IntAct's records for PubMed 22759634

B1: DNA annealing helicase and endonuclease ZRANB3 (Homo sapiens), Q5FWF4 (parent)
chain: MPRVHNIKKSLTPHISCVTNESDNLLDFLPDRLRAKLLPFQKDGIIFALKRNGRCMVADEMGLGKTIQAIGITYFYKEEWPLLIVVPSSLRYPWTEEIEKWIPELSPEEINVIQNKTDVRRMSTSKVTVLGYGLLTADAKTLIDALNNQNFKVVIVDESHYMKSRNATRSRILLPIVQKARRAILLTGTPALGRPEELFMQIEALFPQKFGRWTDYAKRYCNAHIRYFGKRPQWDCRGASNLNELHQLLSDIMIRRLKTEVLTQLPPKVRQRIPFDLPSAAAKELNTSFEEWEKIMRTPNSGAMETVMGLITRMFKQTAIAKAGAVKDYIKMMLQNDSLKFLVFAHHLSMLQACTEAVIENKTRYIRIDGSVSSSERIHLVNQFQKDPDTRVAILSIQAAGQGLTFTAASHVVFAELYWDPGHIKQAEDRAHRIGQCSSVNIHYLIANGTLDTLMWGMLNRKAQVTGSTLNGRKEKIQAEEGDKEKWDFLQFAEAWTPNDSSEELRKEALFTHFEKEKQHDIRSFFVPQPKKRQLMTSCDESKRFREENTVVSSDPTKTAARDIIDYESDVEPETKRLKLAASEDHCSPSEETPSQSKQIRTPLVESVQEAKAQLTTPAFPVEGWQCSLCTYINNSELPYCEMCETPQGSAVMQIDSLNHIQDKNEKDDSQKDTSKKVQTISDCEKQALAQSEPGQLADSKEETPKIEKEDGLTSQPGNEQWKSSDTLPVYDTLMFCASRNTDRIHIYTKDGKQMSCNFIPLDIKLDLWEDLPASFQLKQYRSLILRFVREWSSLTAMKQRIIRKSGQLFCSPILALEEITKQQTKQNCTKRYITKEDVAVASMDKVKNVGGHVRLITKESRPRDPFTKKLLEDGACVPFLNPYTVQADLTVKPSTSKGYLQAVDNEGNPLCLRCQQPTCQTKQACKANSWDSRFCSLKCQEEFWIRSNNSYLRAKVFETEHGVCQLCNVNAQELFLRLRDAPKSQRKNLLYATWTSKLPLEQLNEMIRNPGEGHFWQVDHIKPVYGGGGQCSLDNLQTLCTVCHKERTARQAKERSQVRRQSLASKHGSDITRFLVKK

Variants of: B1
Settings: with pcna_human PCNA

effect of a mutation on the interaction	Variant
decreasing interaction strength	Q519A;F525A;F526A;Y632A

Variants of: B1
Settings: with pcna_human PCNA
Remark: another data set of the same source

effect of a mutation on the interaction	Variant
disrupting interaction strength	Q519A;F525A;F526A
